Source: paper PMC10786891, “Massively parallel profiling of RNA-targeting CRISPR-Cas13d”

T1: EsCas13d, nuclease-dead (Eubacterium siraeum, UniProt B0MS50, R295A;H300A;R849A;H854A)
T1 sequence: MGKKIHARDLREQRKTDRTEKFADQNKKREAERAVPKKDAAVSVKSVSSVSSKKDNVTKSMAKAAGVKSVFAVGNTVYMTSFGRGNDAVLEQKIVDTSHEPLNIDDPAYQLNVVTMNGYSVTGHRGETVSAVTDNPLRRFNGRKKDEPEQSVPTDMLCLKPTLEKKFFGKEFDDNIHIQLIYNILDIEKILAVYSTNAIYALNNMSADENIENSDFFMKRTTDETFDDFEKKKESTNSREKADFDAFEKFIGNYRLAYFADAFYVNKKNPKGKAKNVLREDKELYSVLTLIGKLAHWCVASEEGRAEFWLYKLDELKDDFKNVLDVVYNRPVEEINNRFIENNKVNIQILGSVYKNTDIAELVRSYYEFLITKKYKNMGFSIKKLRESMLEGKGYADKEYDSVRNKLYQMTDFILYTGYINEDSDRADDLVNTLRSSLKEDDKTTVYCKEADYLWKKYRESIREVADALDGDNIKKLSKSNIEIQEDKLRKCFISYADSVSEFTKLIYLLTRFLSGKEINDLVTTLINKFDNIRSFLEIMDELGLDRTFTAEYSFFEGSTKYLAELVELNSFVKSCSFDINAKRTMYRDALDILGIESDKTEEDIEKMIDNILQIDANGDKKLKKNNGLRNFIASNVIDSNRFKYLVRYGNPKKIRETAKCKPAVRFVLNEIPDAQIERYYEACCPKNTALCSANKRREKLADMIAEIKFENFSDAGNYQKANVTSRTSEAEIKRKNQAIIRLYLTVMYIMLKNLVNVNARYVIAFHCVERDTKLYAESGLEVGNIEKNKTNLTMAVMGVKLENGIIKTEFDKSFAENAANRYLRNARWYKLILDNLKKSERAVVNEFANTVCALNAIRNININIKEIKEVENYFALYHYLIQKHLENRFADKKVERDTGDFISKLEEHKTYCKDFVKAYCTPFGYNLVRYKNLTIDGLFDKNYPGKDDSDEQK

B1: target 1 C2G (mixed)
RNA 1: CACCCGUGCAAAAAUGCAGGGGUCUAAAACUGAGCGGAUAACCUCUCUAUGG
RNA 2: GGGAAUGGAUCCACAUCUACGAAUUCGUACCAUAGAGAGGUUAUCCGCUGACCGAGAUCGGAAGAGCACACGU
B2: target 1 insU 3' of 12,insC 3' of 1 (mixed)
RNA 1: CACCCGUGCAAAAAUGCAGGGGUCUAAAACUGAGCGGAUAACCUCUCUAUGG
RNA 2: GGGAAUGGAUCCACAUCUACGAAUUCGUACCAUAGAGAGGUUUAUCCGCUCACCCGAGAUCGGAAGAGCACACGU
B3: target 2 MT 5'PFS AGA 3'PFS UGU (mixed)
RNA 1: CACCCGUGCAAAAUUGCAGGGGUCUAAAACCUUCUCCAAAUUGUUUCAUCCU
RNA 2: GGGAAUGGAUCCACAUCUACGAAUUCAGAAGGAUGAAACAAUUUGGAGAAGUGUAGAUCGGAAGAGCACACGU
B4: target 2 MT 5'PFS GGU 3'PFS CAC (mixed)
RNA 1: CACCCGUGCAAAAUUGCAGGGGUCUAAAACCUUCUCCAAAUUGUUUCAUCCU
RNA 2: GGGAAUGGAUCCACAUCUACGAAUUCGGUAGGAUGAAACAAUUUGGAGAAGCACAGAUCGGAAGAGCACACGU
B5: target 2 MT 5'PFS CUC 3'PFS CCA (mixed)
RNA 1: CACCCGUGCAAAAUUGCAGGGGUCUAAAACCUUCUCCAAAUUGUUUCAUCCU
RNA 2: GGGAAUGGAUCCACAUCUACGAAUUCCUCAGGAUGAAACAAUUUGGAGAAGCCAAGAUCGGAAGAGCACACGU
B6: target 2 MT 5'PFS UGG 3'PFS ACU (mixed)
RNA 1: CACCCGUGCAAAAUUGCAGGGGUCUAAAACCUUCUCCAAAUUGUUUCAUCCU
RNA 2: GGGAAUGGAUCCACAUCUACGAAUUCUGGAGGAUGAAACAAUUUGGAGAAGACUAGAUCGGAAGAGCACACGU
B7: target 2 MT 5'PFS AGG 3'PFS CAU (mixed)
RNA 1: CACCCGUGCAAAAUUGCAGGGGUCUAAAACCUUCUCCAAAUUGUUUCAUCCU
RNA 2: GGGAAUGGAUCCACAUCUACGAAUUCAGGAGGAUGAAACAAUUUGGAGAAGCAUAGAUCGGAAGAGCACACGU
B8: target 2 MT 5'PFS CUA 3'PFS UCU (mixed)
RNA 1: CACCCGUGCAAAAUUGCAGGGGUCUAAAACCUUCUCCAAAUUGUUUCAUCCU
RNA 2: GGGAAUGGAUCCACAUCUACGAAUUCCUAAGGAUGAAACAAUUUGGAGAAGUCUAGAUCGGAAGAGCACACGU
B9: target 2 MT 5'PFS AUG 3'PFS UUU (mixed)
RNA 1: CACCCGUGCAAAAUUGCAGGGGUCUAAAACCUUCUCCAAAUUGUUUCAUCCU
RNA 2: GGGAAUGGAUCCACAUCUACGAAUUCAUGAGGAUGAAACAAUUUGGAGAAGUUUAGAUCGGAAGAGCACACGU
B10: target 2 MT 5'PFS GGU 3'PFS CAU (mixed)
RNA 1: CACCCGUGCAAAAUUGCAGGGGUCUAAAACCUUCUCCAAAUUGUUUCAUCCU
RNA 2: GGGAAUGGAUCCACAUCUACGAAUUCGGUAGGAUGAAACAAUUUGGAGAAGCAUAGAUCGGAAGAGCACACGU
B11: target 2 MT 5'PFS CUC 3'PFS UUG (mixed)
RNA 1: CACCCGUGCAAAAUUGCAGGGGUCUAAAACCUUCUCCAAAUUGUUUCAUCCU
RNA 2: GGGAAUGGAUCCACAUCUACGAAUUCCUCAGGAUGAAACAAUUUGGAGAAGUUGAGAUCGGAAGAGCACACGU
B12: target 2 MT 5'PFS GCA 3'PFS UUA (mixed)
RNA 1: CACCCGUGCAAAAUUGCAGGGGUCUAAAACCUUCUCCAAAUUGUUUCAUCCU
RNA 2: GGGAAUGGAUCCACAUCUACGAAUUCGCAAGGAUGAAACAAUUUGGAGAAGUUAAGAUCGGAAGAGCACACGU
B13: target 2 MT 5'PFS CUA 3'PFS UCC (mixed)
RNA 1: CACCCGUGCAAAAUUGCAGGGGUCUAAAACCUUCUCCAAAUUGUUUCAUCCU
RNA 2: GGGAAUGGAUCCACAUCUACGAAUUCCUAAGGAUGAAACAAUUUGGAGAAGUCCAGAUCGGAAGAGCACACGU
B14: target 2 MT 5'PFS CUC 3'PFS CCU (mixed)
RNA 1: CACCCGUGCAAAAUUGCAGGGGUCUAAAACCUUCUCCAAAUUGUUUCAUCCU
RNA 2: GGGAAUGGAUCCACAUCUACGAAUUCCUCAGGAUGAAACAAUUUGGAGAAGCCUAGAUCGGAAGAGCACACGU
B15: target 2 MT 5'PFS AUU 3'PFS AAG (mixed)
RNA 1: CACCCGUGCAAAAUUGCAGGGGUCUAAAACCUUCUCCAAAUUGUUUCAUCCU
RNA 2: GGGAAUGGAUCCACAUCUACGAAUUCAUUAGGAUGAAACAAUUUGGAGAAGAAGAGAUCGGAAGAGCACACGU
B16: target 2 MT 5'PFS GGU 3'PFS CAG (mixed)
RNA 1: CACCCGUGCAAAAUUGCAGGGGUCUAAAACCUUCUCCAAAUUGUUUCAUCCU
RNA 2: GGGAAUGGAUCCACAUCUACGAAUUCGGUAGGAUGAAACAAUUUGGAGAAGCAGAGAUCGGAAGAGCACACGU
B17: target 2 MT 5'PFS UGC 3'PFS UUC (mixed)
RNA 1: CACCCGUGCAAAAUUGCAGGGGUCUAAAACCUUCUCCAAAUUGUUUCAUCCU
RNA 2: GGGAAUGGAUCCACAUCUACGAAUUCUGCAGGAUGAAACAAUUUGGAGAAGUUCAGAUCGGAAGAGCACACGU
B18: target 2 MT 5'PFS UGG 3'PFS ACA (mixed)
RNA 1: CACCCGUGCAAAAUUGCAGGGGUCUAAAACCUUCUCCAAAUUGUUUCAUCCU
RNA 2: GGGAAUGGAUCCACAUCUACGAAUUCUGGAGGAUGAAACAAUUUGGAGAAGACAAGAUCGGAAGAGCACACGU
B19: target 2 MT 5'PFS GCC 3'PFS UAU (mixed)
RNA 1: CACCCGUGCAAAAUUGCAGGGGUCUAAAACCUUCUCCAAAUUGUUUCAUCCU
RNA 2: GGGAAUGGAUCCACAUCUACGAAUUCGCCAGGAUGAAACAAUUUGGAGAAGUAUAGAUCGGAAGAGCACACGU
B20: target 2 MT 5'PFS GGU 3'PFS CAA (mixed)
RNA 1: CACCCGUGCAAAAUUGCAGGGGUCUAAAACCUUCUCCAAAUUGUUUCAUCCU
RNA 2: GGGAAUGGAUCCACAUCUACGAAUUCGGUAGGAUGAAACAAUUUGGAGAAGCAAAGAUCGGAAGAGCACACGU
B21: target 2 MT 5'PFS UGG 3'PFS ACG (mixed)
RNA 1: CACCCGUGCAAAAUUGCAGGGGUCUAAAACCUUCUCCAAAUUGUUUCAUCCU
RNA 2: GGGAAUGGAUCCACAUCUACGAAUUCUGGAGGAUGAAACAAUUUGGAGAAGACGAGAUCGGAAGAGCACACGU
B22: target 2 MT 5'PFS CUA 3'PFS UCA (mixed)
RNA 1: CACCCGUGCAAAAUUGCAGGGGUCUAAAACCUUCUCCAAAUUGUUUCAUCCU
RNA 2: GGGAAUGGAUCCACAUCUACGAAUUCCUAAGGAUGAAACAAUUUGGAGAAGUCAAGAUCGGAAGAGCACACGU
B23: target 2 MT 5'PFS UGG 3'PFS ACC (mixed)
RNA 1: CACCCGUGCAAAAUUGCAGGGGUCUAAAACCUUCUCCAAAUUGUUUCAUCCU
RNA 2: GGGAAUGGAUCCACAUCUACGAAUUCUGGAGGAUGAAACAAUUUGGAGAAGACCAGAUCGGAAGAGCACACGU
B24: target 2 MT 5'PFS CUC 3'PFS CCG (mixed)
RNA 1: CACCCGUGCAAAAUUGCAGGGGUCUAAAACCUUCUCCAAAUUGUUUCAUCCU
RNA 2: GGGAAUGGAUCCACAUCUACGAAUUCCUCAGGAUGAAACAAUUUGGAGAAGCCGAGAUCGGAAGAGCACACGU

Biological target: T1, EsCas13d, nuclease-dead
Test: crRNA (strand 1, pre-loaded); Mg2+; 40 mM Tris-HCl pH 7.5, 150 mM NaCl, 6 mM MgCl2, 1 mM DTT, 0.1% Tween-20, 0.2 mg/ml BSA; 25 C; 10 min per concentration, then washed
Settings: tags: His6-TwinStrep-SUMO cleaved; N-terminal SNAP kept (SNAP-Surface 488); label: 3' end held by stalled T7 RNA polymerase

Point of comparison: B23, Kd 27 ± 6 nM. Against it:
- B1 — 3.3-fold lower, 8.3 ± 0.6 nM
- B2 — 3-fold lower, 8.9 ± 0.7 nM
- B3 — 2.8-fold lower, 9.5 ± 1.2 nM
- B4 — 1.8-fold lower, 14.8 ± 2.2 nM
- B5 — 5.6-fold lower, 4.8 ± 0.7 nM
- B6 — 2.8-fold lower, 9.5 ± 1.3 nM
- B7 — 5.9-fold lower, 4.6 ± 0.6 nM
- B8 — 7.5-fold lower, 3.6 ± 0.4 nM
- B9 — within error, 25 ± 6 nM
- B10 — 1.8-fold lower, 14.9 ± 2.3 nM
- B11 — 8.4-fold lower, 3.2 ± 0.5 nM
- B12 — within error, 17 ± 4 nM
- B13 — 7.9-fold lower, 3.4 ± 0.5 nM
- B14 — within error, 23 ± 7 nM
- B15 — 4.8-fold lower, 5.6 ± 0.6 nM
- B16 — 2.1-fold lower, 13 ± 1 nM
- B17 — within 1.5-fold, ~40 nM
- B18 — 4.5-fold lower, 6 ± 0.7 nM
- B19 — within error, 22 ± 4 nM
- B20 — 3.1-fold lower, 8.6 ± 1.4 nM
- B21 — 4.9-fold lower, 5.5 ± 0.4 nM
- B22 — 12-fold lower, 2.17 ± 0.35 nM
- B24 — 12-fold lower, 2.21 ± 0.24 nM
